Publication PMC2033760, “Interleukin 1 modulates growth of human renal carcinoma cells in vitro” (British Journal of Cancer, 1995)

Target: T1, IL-1 receptor type I (human (endogenous in A-498), UniProt P14778 18-569)
T1 construct: In the functional row on Caki-2 cells the endogenous receptor of those cells is meant; it was not detected there directly; also called IL-1 receptor type I (80 kDa); source: endogenous, on A-498 cells
T1 sequence (looked up): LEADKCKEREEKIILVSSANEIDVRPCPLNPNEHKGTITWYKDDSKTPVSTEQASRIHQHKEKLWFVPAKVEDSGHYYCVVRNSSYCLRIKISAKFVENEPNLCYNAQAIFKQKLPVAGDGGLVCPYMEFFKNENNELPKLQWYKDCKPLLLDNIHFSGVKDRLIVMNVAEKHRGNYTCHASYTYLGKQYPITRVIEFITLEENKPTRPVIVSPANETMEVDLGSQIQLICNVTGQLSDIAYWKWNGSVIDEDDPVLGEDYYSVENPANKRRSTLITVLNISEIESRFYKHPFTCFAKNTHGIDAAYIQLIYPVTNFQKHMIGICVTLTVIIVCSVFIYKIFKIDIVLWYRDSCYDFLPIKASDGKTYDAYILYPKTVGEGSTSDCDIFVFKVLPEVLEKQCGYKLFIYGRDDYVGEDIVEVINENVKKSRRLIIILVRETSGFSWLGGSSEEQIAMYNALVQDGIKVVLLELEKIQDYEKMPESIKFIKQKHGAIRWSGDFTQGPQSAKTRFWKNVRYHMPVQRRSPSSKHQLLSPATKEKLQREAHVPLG
Assay: radioligand binding; [125I]IL-1 alpha at increasing concentrations (direct) or at 80 pM with increasing unlabelled IL-1 alpha (competition) on subconfluent A-498 cells in 24-well plates; cells washed with binding medium pH 3.0 for 30 s beforehand; binding medium with 20 mM HEPES pH 7.0; 3 h at 4 C; Scatchard analysis, two classes of binding sites
Conditions: one partner purified

KD of the high-affinity sites: 45 pM
KD of the low-affinity sites: 1.3 nM
B1: [125I]IL-1 alpha (ligand, UniProt P01583 113-271, looked up)
chain: SAPFSFLSNVKYNFMRIIKYEFILNDALNQSIIRANDQYLTAAALHNLDEAVKFDMGAYKSSKDDAKITVILRISKTQLYVTAQDEDQPVLLKEMPEIPKTITGSETNLLFFWETHGTKNYFTSVAHPNLFIATKQDYWVCLAGGPPSITDFQILENQA
modifications: 125I label (radioiodinated)
notes: interleukin 1 alpha, the 17 kDa form as printed; also called radiolabelled interleukin 1 alpha; source: bought: Amersham-Buchler
